Results as given in patent US20210145976A1.
Substitutions are numbered along the chain they refer to.

B1: SEQ ID NO 223 (designed binder)
chain: MLPAPKNLVVSRVTEDSARLSWTAPDAAFDSFTIWYAEALGDGEAIVLTVPGSERSYDLTGLKPGTEYFVDIPGVKGGTRSSPLSAISTT
B2: SEQ ID NO 237 (designed binder)
chain: MLPAPKNLVVSRVTEDSARLSWTAPDAAFDSFTILYGEMGTTGEAIVLTVPGSERSYDLTGLKPGTEYDVFIEGVKGGELSWPLSAIFTT
B3: SEQ ID NO 246 (designed binder)
chain: B2 chain with L35A, G37N, M39Q, G40N, T41H, T42Y, D69G, F71W, E79T
B4: SEQ ID NO 252 (designed binder)
chain: MLPAPKNLVVSRVTEDSARLSWTAPDAAFDSFDIGYTEYGGYGEAIVLTVPGSERSYDLTGLKPGTEYWVLIQGVKGGGSSVPLSAIFTT
B5: SEQ ID NO 256 (designed binder)
chain: MLPAPKNLVVSRVTEDSARLSWTAPDAAFDSFHIVYHEPRPSGEAIVLTVPGSERSYDLTGLKPGTEYEVGIVGVKGGDLSVPLSAIFTT
B6: SEQ ID NO 257 (designed binder)
chain: B5 chain with G74S
B7: SEQ ID NO 220 (designed binder)
chain: MLPAPKNLVVSRVTEDSARLSWTAPDAAFDSFHIIYEEDGTEGEAIYLRVPGSERSYDLTGLKPGTEYEVDIEGVKGGVLSWPLFAEFTT
B8: SEQ ID NO 226 (designed binder)
chain: B7 chain with D39V, G40L, E69G, D71T, E73K, V79A, L80Y, W82I, F85I, E87T
B9: SEQ ID NO 245 (designed binder)
chain: MLPAPKNLVVSRITEDSARLSWTAPDAAFDSFGIAYNEGDHYGEAIVLTVPGSERSYDLTGLKPGTEYSVWIEGVKGGNLSYPLSAIFTT
B10: SEQ ID NO 214 (designed binder)
chain: MLPAPKNLVVSRVTEDSARLSWTAPDAAFDSFAIPYGERQELGEAIVLTVPGSERSYDLTGLKPGTEYFVVIQGVKGGQPSYPLSAIFTT
B11: SEQ ID NO 230 (designed binder)
chain: MLPAPKNLVVSRVTEDSARLSWTAPDAAFDSFQIRYPKRWISGEAIVLTVPGSERSYDLTGLKPGTEYEVVIRGVKGGEYSWPLSAIFTT
B12: SEQ ID NO 250 (designed binder)
chain: MLPAPKNLVVSRVTEDSARLSWTAPDAAFDSFFIGYLEPYPPGEAIVLTVPGSERSYDLTGLKPGTEYAVEIAGVKGGLLSSPLSAISTT
B13: SEQ ID NO 251 (designed binder)
chain: B12 chain with Y40Q, A69N, E71T, A73Q, L79F, L80P, S82M, S88V
B14: SEQ ID NO 235 (designed binder)
chain: MLPAPKNLVVSRVTEDSARLSWTAPDAAFDSFSINYREWWSDGEAIYLPVPGSERSYDLTGLKPGTEYAVYIQGVKGGSRSFPLHAWFTT
B15: SEQ ID NO 224 (designed binder)
chain: MLLAPKNLVVSRVTEDSARLSWTAPDAAFDSFRYLEQGLYGEAIVLTVPGSERSYDLTGLKPGTEYWVEIIGVKGGEYSTPLSAIFTT
B16: SEQ ID NO 49 (designed binder)
chain: MLPAPKNLVVSRVTEDSARLSWTAPDAAFDSFGISYLEWWEDGEAIVLTVPGSERSYDLTGLKPGTEYWVSIAGVKGGKRSYPLSAIFTT
B17: SEQ ID NO 51 (designed binder)
chain: B16 chain with G33F, S35K, L37I, E41A, W69L, S71E, A73Y, R80W, Y82W
B18: SEQ ID NO 229 (designed binder)
chain: B16 chain with G33S, S35H, L37D, W39D, E41R, D42R, W69L, S71E, A73P, R80A
B19: SEQ ID NO 227 (designed binder)
chain: B16 chain with G33R, S35R, E41N, D42I, W69H, S71D, A73W, K79Y, R80S
B20: SEQ ID NO 52 (designed binder)
chain: B16 chain with G33K, L37Q, S71N, A73S, K79V, R80Q
B21: SEQ ID NO 240 (designed binder)
chain: B16 chain with G33R, S35K, E41L, D42G, S71D, A73Q, K79V, R80L, Y82W
B22: SEQ ID NO 242 (designed binder)
chain: B16 chain with G33P, S35K, E41S, D42W, W69R, S71P, A73S, K79G, R80M, Y82G
B23: SEQ ID NO 215 (designed binder)
chain: MLPAPKNLVVSRVTEDSARLSWTAPDAAFDSFLIPYAETSPTGEAIVLTVPGSERSYDLTGLKPGTEYSVLIHGVKGGYPSSPLSAIFTT
B24: SEQ ID NO 233 (designed binder)
chain: B23 chain with L33Y, P35V, T39P, S40I, T42N, Y79R, P80N, S82D
B25: SEQ ID NO 216 (designed binder)
chain: B23 chain with L33P, P35A, T39P, S40T, T42S, Y79G, P80L, S82L
B26: SEQ ID NO 219 (designed binder)
chain: B23 chain with L33H, P35D, A37L, T39L, S40T, P41Y, T42A, S69Y, L71T, H73Y
B27: SEQ ID NO 254 (designed binder)
chain: B23 chain with L33F, T39P, Y79H, P80L, S82D, F88S
B28: SEQ ID NO 48 (designed binder)
chain: MLPAPKNLVVSRVTEDSARLSWTAPDAAFDSFVIEYFEQFNLGEAIVLTVPGSERSYDLTGLKPGTEYWVGIYGVKGGWLSHPLSAIFTT
B29: SEQ ID NO 253 (designed binder)
chain: B28 chain with V33T, F37W, Q39T, F40I, N41G, L42G, W69Y, L80W, H82R
B30: SEQ ID NO 225 (designed binder)
chain: B28 chain with V33K, Q39Y, F40V, N41G, L42Y, W69Y, G71A, L80Y, H82R
B31: SEQ ID NO 255 (designed binder)
chain: B28 chain with V33D, F37Y, Q39L, F40I, N41G, L42R, H82R
B32: SEQ ID NO 222 (designed binder)
chain: B28 chain with V33Y, Q39W, F40T, N41G, L42S, W69N, G71A, W79A, L80V, H82Y
B33: SEQ ID NO 231 (designed binder)
chain: MLPAPKNLVVSRVTEDSARLSWTAPDAAFDSFEIPYIETVALGEAIVLTVPGSERSYDLTGLKPGTEYYVEIYGVKGGSYSYPLSAISTT
B34: SEQ ID NO 239 (designed binder)
chain: MLPAPKNLVVSRVTEDSARLSWTAPDAAFDSFAITYYEGRWRGEAIVLTVPGSERSYDLTGLKPGTEYGVPIRGVKGGTGSLPLSAIFTT
B35: SEQ ID NO 247 (designed binder)
chain: MLPAPKNLVVSRVTEDSARLSWTAPDAAFDSFYIEWTYKGEAIVLTVPGSERSYDLTGLKPGTEYFVGIPGVKGGKSSYPLSAIFTT
B36: SEQ ID NO 238 (designed binder)
chain: MLPAPKNLVVSRVTEDSARLSWTAPDAAFDSFKIFYQEFGGEAIVLTVPGSERSYDLTGLKPGTEYWVDIYGVKGGYTSSPLSAIFTT
B37: SEQ ID NO 217 (designed binder)
chain: MLPAPKNLVVSRVTEDSARLSWTAPDAAFDSFIIEYWEWYFAGEAIVLTVPGSERSYDLTGLKPGTEYTVWITGVKGGTWSEPLSAIFTT
B38: SEQ ID NO 218 (designed binder)
chain: MLPAPKNLVVSRVTEDSARLSWTAPDAAFDSFTILYYEMVGEGEAIVLTVPGSERSYDLTGPKPGTEYWVDIYGVKGGGWSRPLSAIFTT
B39: SEQ ID NO 248 (designed binder)
chain: MGSLPAPKNLVVSRVTEDSARLSWTAPDAAFDSFAIPYAEPSPTGEAIVLTVPGSERSYDLTGLKPGTEYPVWIQGVKGGSPSAPLSAEFTT
B40: SEQ ID NO 244 (designed binder)
chain: MLPAPKNLVVSRVTEDSARLSWTAPDAAFDSFHIDYSEFHLRGEAIVLTVPGSERSYDLTGLKPGTEYLGIFGVKGGEQSGPLSAIFTT
B41: SEQ ID NO 221 (designed binder)
chain: MLPAPKNLVVSRVTEDSARLSWTAPDAAFDSFHISYQEVVAEGEAIYLRVPGSERSYDLTGLKPGTEYYVLIHGVKGGYESKPLDASFTT
B42: SEQ ID NO 241 (designed binder)
chain: MLPAPKNLVVSRVTEDSARLSWTAPDAAFDSFNIYYYEWFVSGEAIVLTVPGSERSYDLTGLKPGTEYFVDIDGVKGGYRSRPLSAIFTT

What follows are binders tested against human serum albumin (human) (UniProt P02768) (assay: screening ELISA).
Chain of human serum albumin (human) (P02768 25-609 limits assumed): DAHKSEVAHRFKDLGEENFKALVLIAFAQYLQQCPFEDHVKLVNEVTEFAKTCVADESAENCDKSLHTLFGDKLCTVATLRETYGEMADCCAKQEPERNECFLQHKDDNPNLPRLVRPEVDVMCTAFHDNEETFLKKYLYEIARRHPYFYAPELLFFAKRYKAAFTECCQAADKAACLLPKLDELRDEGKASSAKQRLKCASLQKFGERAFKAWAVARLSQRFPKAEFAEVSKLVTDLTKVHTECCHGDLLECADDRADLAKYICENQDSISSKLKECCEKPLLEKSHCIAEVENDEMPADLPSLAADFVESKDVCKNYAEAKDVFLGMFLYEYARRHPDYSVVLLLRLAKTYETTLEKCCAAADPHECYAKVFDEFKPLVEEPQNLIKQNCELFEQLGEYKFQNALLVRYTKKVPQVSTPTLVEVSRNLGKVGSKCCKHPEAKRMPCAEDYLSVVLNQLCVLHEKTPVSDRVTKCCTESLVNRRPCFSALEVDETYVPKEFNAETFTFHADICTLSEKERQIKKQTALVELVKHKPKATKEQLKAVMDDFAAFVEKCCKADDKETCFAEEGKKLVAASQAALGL
Work on B1 yielded an HSA of 52000.
For B2, the HSA was 1850.
B3 showed an HSA of 1400.
In the case of B4, the HSA is reported as 2500.
In the case of B5, the HSA is reported as 2200.
B6 gave an HSA of 3950.
Work on B7 yielded an HSA of 9400.
B8 showed an HSA of 2850.
Binder B9 has an HSA of 2900.
B10 gave an HSA of 2200.
For B11, the HSA was 1900.
B12 was tested, and the HSA was 18800.
In the case of B13, the HSA is reported as 9650.
Work on B14 yielded an HSA of 1350.
B15 gave an HSA of 16500.
Binder B16 has an HSA of 11500.
With B17 the HSA was 4240.
With B18 the HSA was 3700.
For B19, the HSA was 2300.
B20 showed an HSA of 1760.
Binder B21 has an HSA of 2050.
For B22, the HSA was 4900.
Work on B23 yielded an HSA of 1750.
B24 was tested, and the HSA was 2600.
With B25 the HSA was 21800.
With B26 the HSA was 2600.
With B27 the HSA was 90000.
For B28, the HSA was 2800.
B29 showed an HSA of 2450.
For B30, the HSA was 14100.
In the case of B31, the HSA is reported as 4550.
With B32 the HSA was 3950.
With B33 the HSA was 26500.
Binder B34 has an HSA of 5050.
With B35 the HSA was 53000.
In the case of B36, the HSA is reported as 4250.
For B37, the HSA was 11800.
Binder B38 has an HSA of 33800.
With B39 the HSA was 15100.
For B40, the HSA was 1650.
B41 showed an HSA of 3650.
B42 gave an HSA of 2200.
